Reference: patent US20070166308A1 (Amgen, published 2007)
Each block holds one binder with its values, some of them ahead of it.

Assays:
[1] = molecular target: T1, MAdCAM-IgG1 Fc fusion protein (human); test: adhesion of calcein-loaded α4β7+ JY cells to coated MAdCAM-IgG1 Fc, blocked by antibody
T1 construct: Expressed in CHO-DHFR cells; also called MAdCAM-IgFc; soluble MAdCAM (in the sandwich ELISA)
Experimental: (§1) The cells were washed twice with RPMI 1640 media (Gibco) containing 2 mM L-glutamine (Gibco) by centrifugation (240 g), resuspending the final cell pellet at 2×10⁶ cells/mL in RPMI 1640 for Calcein AM loading. Calcein AM (Molecular Probes #C-3099) was added to the cells as a 1:200 dilution in DMSO (ca. final concentration 5 μM) and the cells protected from light during the course of the incubation (37° C. for 30 min). During this cell incubation step the antibodies to be tested, were diluted as follows: for single dose testing, the antibodies were made up to 3 μg/mL (1 μg/mL final) in 0.1 mg/mL BSA (Sigma#A3059) in PBS; for full IC₅₀ curves, the antibodies were diluted in 0.1 mg/mL BSA/PBS, with 3 μg/mL (1 μg/mL final) being the top concentration, then doubling dilutions (1:2 ratio) across the plate. The final well of the row was used for determining total binding, so 0.1 mg/ml BSA in PBS was used.
After blocking, the plate contents were flicked out and 50 μL of antibodies/controls were added to each well and the plate incubated at 37° C. for 20 min. During this time, Calcein-loaded JY cells were washed once with RPMI 1640 media containing 10% fetal bovine serum and once with 1 mg/mL BSA/PBS by centrifugation, resuspending the final cell pellet to 1×10⁶/mL in 1 mg/mL BSA/PBS. 100 μL of cells were added to each well of the U bottomed plate, the plate sealed, briefly centrifuged (1000 rpm for 2 min) and the plate then incubated at 37° C. for 45 min. At the end of this time, the plates were washed with a Skatron plate washer and fluorescence measured using a Wallac Victor² 1420 Multilabel Reader (excitation λ 485 nm, emission λ 535 nm count from top, 8 mm from bottom of plate, for 0.1 sec with normal emission aperture). For each antibody concentration, percent adhesion was expressed as a percentage of maximal fluorescence response in the absence of any antibody minus fluorescence associated with non-specific binding. […]

VCAM (Panvera) = molecular target: T2, VCAM (Panvera) (UniProt P19320 25-698, limits assumed); test: cell-based or functional assay
T2 sequence (looked up): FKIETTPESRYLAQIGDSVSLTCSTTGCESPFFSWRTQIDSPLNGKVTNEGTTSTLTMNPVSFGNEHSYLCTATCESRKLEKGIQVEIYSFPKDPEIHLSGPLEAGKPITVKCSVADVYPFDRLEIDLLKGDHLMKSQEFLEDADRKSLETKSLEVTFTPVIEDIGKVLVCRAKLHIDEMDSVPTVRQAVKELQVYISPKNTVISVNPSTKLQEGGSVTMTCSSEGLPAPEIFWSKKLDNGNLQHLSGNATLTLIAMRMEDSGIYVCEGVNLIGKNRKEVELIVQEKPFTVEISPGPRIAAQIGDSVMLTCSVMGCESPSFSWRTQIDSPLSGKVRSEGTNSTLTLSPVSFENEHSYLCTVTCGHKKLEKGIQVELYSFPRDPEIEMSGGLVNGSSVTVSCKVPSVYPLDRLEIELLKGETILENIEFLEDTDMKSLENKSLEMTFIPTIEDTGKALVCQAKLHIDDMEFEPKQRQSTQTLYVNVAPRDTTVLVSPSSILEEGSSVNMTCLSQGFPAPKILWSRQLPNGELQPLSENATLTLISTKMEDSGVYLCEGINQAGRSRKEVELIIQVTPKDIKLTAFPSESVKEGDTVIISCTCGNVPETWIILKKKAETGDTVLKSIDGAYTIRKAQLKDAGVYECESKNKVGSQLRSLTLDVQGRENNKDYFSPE

[2] = molecular target: Fibronectin cell binding fragment (110 Kd, Europa Bioproducts Ltd, Cat. No. UBF4215-18) (UniProt P02751-1 722-1635); test: cell-based or functional assay
Fibronectin cell binding fragment (110 Kd, Europa Bioproducts Ltd, Cat. No. UBF4215-18), sequence (P02751 other isoform, or with tags, fused parts or gaps limits assumed): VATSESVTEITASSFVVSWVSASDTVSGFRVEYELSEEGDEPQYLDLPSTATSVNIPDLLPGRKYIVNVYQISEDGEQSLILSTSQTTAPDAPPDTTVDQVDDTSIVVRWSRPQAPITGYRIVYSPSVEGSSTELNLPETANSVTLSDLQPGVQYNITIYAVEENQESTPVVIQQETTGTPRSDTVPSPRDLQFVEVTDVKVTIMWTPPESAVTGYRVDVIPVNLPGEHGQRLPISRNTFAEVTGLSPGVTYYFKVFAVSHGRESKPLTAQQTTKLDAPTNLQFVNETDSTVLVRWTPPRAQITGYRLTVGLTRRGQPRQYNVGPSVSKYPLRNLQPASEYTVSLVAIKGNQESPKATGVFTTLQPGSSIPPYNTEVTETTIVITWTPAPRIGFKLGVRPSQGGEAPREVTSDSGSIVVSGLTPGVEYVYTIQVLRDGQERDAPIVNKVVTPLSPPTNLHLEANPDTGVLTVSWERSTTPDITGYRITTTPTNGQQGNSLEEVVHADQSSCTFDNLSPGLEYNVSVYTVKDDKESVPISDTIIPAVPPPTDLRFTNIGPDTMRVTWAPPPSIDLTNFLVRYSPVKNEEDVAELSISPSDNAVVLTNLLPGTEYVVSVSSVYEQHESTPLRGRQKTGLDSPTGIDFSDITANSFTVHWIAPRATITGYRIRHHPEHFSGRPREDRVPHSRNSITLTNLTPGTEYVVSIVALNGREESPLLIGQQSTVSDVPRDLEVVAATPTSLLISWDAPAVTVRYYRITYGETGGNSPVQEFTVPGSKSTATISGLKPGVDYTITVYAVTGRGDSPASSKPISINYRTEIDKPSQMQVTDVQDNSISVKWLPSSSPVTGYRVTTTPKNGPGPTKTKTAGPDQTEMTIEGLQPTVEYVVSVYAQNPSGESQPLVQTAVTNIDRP

[3] = molecular target: T1, MAdCAM-IgG1 Fc fusion protein; test: MAdCAM-IgG1 Fc fusion / JY cell adhesion assay, mean IC50
Experimental: as §1
After blocking, the plate contents were flicked out and 50 μL of antibodies/controls were added to each well and the plate incubated at 37° C. for 20 min. During this time, Calcein-loaded JY cells were washed once with RPMI 1640 media containing 10% fetal bovine serum and once with 1 mg/mL BSA/PBS by centrifugation, resuspending the final cell pellet to 1×10⁶/mL in 1 mg/mL BSA/PBS. 100 μL of cells were added to each well of the U bottomed plate, the plate sealed, briefly centrifuged (1000 rpm for 2 min) and the plate then incubated at 37° C. for 45 min. At the end of this time, the plates were washed with a Skatron plate washer and fluorescence measured using a Wallac Victor² 1420 Multilabel Reader (excitation λ 485 nm, emission λ 535 nm count from top, 8 mm from bottom of plate, for 0.1 sec with normal emission aperture). For each antibody concentration, percent adhesion was expressed as a percentage of maximal fluorescence response in the absence of any antibody minus fluorescence associated with non-specific binding. The IC₅₀ value is defined as the anti-MAdCAM antibody concentration at which the adhesion response is decreased to 50% of the response in the absence of anti-MAdCAM antibody.

T1 sequence (chain, as listed by the source limits assumed): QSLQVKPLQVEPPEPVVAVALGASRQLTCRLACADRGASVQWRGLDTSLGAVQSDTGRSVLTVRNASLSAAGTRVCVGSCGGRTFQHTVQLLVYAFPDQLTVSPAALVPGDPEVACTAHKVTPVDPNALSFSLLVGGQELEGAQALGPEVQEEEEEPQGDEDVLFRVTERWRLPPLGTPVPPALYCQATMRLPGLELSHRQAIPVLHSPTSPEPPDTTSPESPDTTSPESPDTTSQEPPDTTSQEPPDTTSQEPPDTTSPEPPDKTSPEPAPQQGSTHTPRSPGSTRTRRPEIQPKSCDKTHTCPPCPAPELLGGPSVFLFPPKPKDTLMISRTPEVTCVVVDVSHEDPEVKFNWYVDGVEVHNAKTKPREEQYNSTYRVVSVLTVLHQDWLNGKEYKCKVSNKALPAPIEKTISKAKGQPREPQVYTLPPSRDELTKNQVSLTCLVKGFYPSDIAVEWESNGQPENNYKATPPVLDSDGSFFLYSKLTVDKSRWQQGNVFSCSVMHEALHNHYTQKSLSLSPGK

IC50 [1]: < 0.1 µg/mL
inhibition of adhesion of α4β1+/α5β1+ Jurkat T-cells to coated VCAM (VCAM (Panvera)): > 100 fold
inhibition of adhesion of α4β1+/α5β1+ Jurkat T-cells to coated Fibronectin cell binding fragment [2]: > 100 fold
IC50 [3]: 0.021 µg/mL
B1: anti-MAdCAM monoclonal antibody 7.26.4 (antibody, human IgG2, kappa, V domains shown)
VH: QVQLVQSGAEVKKPGASVKVSCEASGYTFTSYGIDWVRQAPGQGLEWMGWISVYSGNTNYAQKLQGRVTMSTDTSTSTAYMELRSLRSDDTAVYYCAREGSSSSGDYYYGMDVWGQGTTVTVSS
VL: DIVMTQTPLSLSVTPGQPASISCKSNQSLLYSDGKTYLFWYLQKPGQPPQLLIYEVSNRFSGVPDRFSGSGSGTDFTLKISRVEAEDVGVYYCMQSIQLPWTFGQGTKVEIKR
notes: fully human IgG2 kappa from hybridoma; signal peptide left out; kappa chain glycosylation confirmed

IC50 [1]: < 0.1 µg/mL
inhibition of adhesion of α4β1+/α5β1+ Jurkat T-cells to coated VCAM (VCAM (Panvera)): > 100 fold
inhibition of adhesion of α4β1+/α5β1+ Jurkat T-cells to coated Fibronectin cell binding fragment [2]: > 100 fold
B2: anti-MAdCAM monoclonal antibody 9.8.2 (antibody, human IgG4, kappa, V domains shown)
VH: QVQLVESGGGVVQPGRSLRLSCAASGFTFSSYGMHWVRQAPGKGLEWVAVIWYDGSNEYYADSVKGRFTISRDNSKNTLYLQMNSLRAEDTAVYYCARGAYHFAYWGQGTLVTVSS
VL: DIQMTQSPSSLSASVGDRVTITCQASQDISNYLNWYQQKPGKAPKLLIYDASNLETGVPSRFSGSGSGTDFTFTISSLQPEDIATYSCQHSDNLSITFGQGTRLEIKR
notes: fully human IgG4 kappa from hybridoma; signal peptide left out; kappa chain stained positive for glycosylation
